Assays:
[1] = molecular target: VAMP2 (UniProt P63044); assay: GST pull-down, anti-Munc18c and anti-pTyr blots; conditions: reference: Munc18c incubated without CIRK; sites Y521
[2] = molecular target: Syntaxin 4 (Sx4) cytosolic domain, 1-273 (UniProt P70452); assay: GST pull-down, anti-Munc18c and anti-pTyr blots; conditions: reference: Munc18c incubated without CIRK; sites Y521
[3] = molecular target: CIRK-treated Munc18c; assay: GST pull-down, anti-Munc18c immunoblot quantification; conditions: 1 μg GST fusion on glutathione-Sepharose, 1 μg Munc18c pre-treated with 370 ng CIRK for 150 min, binding buffer, overnight, 4°C, n=3, read off a plot, scale: % of control Munc18c bound to wild-type Sx4

Sx4 lacking the N-terminal 36 amino acids (N36Δ), GST fusion, sequence (P70452 whole entry, looked up, stated change not applied, the tested form may be a part): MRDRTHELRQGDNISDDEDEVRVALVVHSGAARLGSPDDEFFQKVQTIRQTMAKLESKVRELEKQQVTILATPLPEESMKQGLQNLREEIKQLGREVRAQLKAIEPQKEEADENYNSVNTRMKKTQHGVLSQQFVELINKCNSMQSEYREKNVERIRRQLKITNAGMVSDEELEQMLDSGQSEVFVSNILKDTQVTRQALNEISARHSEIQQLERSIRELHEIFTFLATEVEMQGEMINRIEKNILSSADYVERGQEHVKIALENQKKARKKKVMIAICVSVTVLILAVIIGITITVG
Sx4-GST, wild-type Syntaxin 4 cytosolic domain (residues 1-273), sequence (P70452 whole entry L173A/E174A, looked up, the tested form may be a part): as the sequence (P70452 whole entry, looked up, stated change not applied, the tested form may be a part) above, with L173A, E174A counted along it

Munc18c (from UniProt Q60770) CIRK-treated Munc18c (pTyr form absent from pull-down)
binding against the reference [1]: weaker

Munc18c (from UniProt Q60770) Munc18c pre-treated with CIRK
other: percent decrease [2]: 30%

Sx4 lacking the N-terminal 36 amino acids (N36Δ), GST fusion (from UniProt P70452) L173A; E174A
other: % Munc18c bound relative to wild-type Sx4 ([3]; parent: est. 9): 10

Sx4-GST, wild-type Syntaxin 4 cytosolic domain (residues 1-273) (from UniProt P70452) L173A; E174A
other: % Munc18c bound relative to wild-type Sx4 ([3]; parent: est. 71): 64
